# Values of other authors, collected in paper PMC4065351.
# Test system: Cys2 (position 2, ----ECG----)
# Conditions: free reduced glutathione
substance,measurement,value
"Glutathione (GSH, gamma-L-glutamyl-L-cysteinylglycine) (not applicable (ubiquitous low-molecular-weight thiol))",pKa,8.93
